Measurements as given in article PMC2800207.

How the values were obtained:
Assay in all cases: fluorescence anisotropy
NusB K2E = NusB K2E (Escherichia coli, UniProt P0A780 1-139, K2E)
NusB D118N (NusB101) = NusB D118N (NusB101) (Escherichia coli, UniProt P0A780 1-139, D118N)
NusB = NusB (Escherichia coli, UniProt P0A780 1-139)
NusB D118A = NusB D118A (Escherichia coli, UniProt P0A780 1-139, D118A)
NusB D118R = NusB D118R (Escherichia coli, UniProt P0A780 1-139, D118R)
NusB D118K = NusB D118K (Escherichia coli, UniProt P0A780 1-139, D118K)

Row | Binder | Kd (NusB D118N (NusB101)) [µM] | Kd (NusB) [µM] | binding result (NusB D118N (NusB101)) | binding result (NusB) | also measured
1 | CACUGCUCUUUAACAAUUA (ssRNA) [rrnG BoxA-spacer] | 0.024 ± 0.004 | 0.13 ± 0.02 |  |  | Kd (NusB K2E): 3.6 µM
2 | CGCUCUUAAAAAUUAA (ssRNA) [nutL BoxA-spacer] |  | 2.2 ± 0.8 |  |  | Kd (NusB K2E): 5.1 µM
3 | CGCUCUUA (ssRNA) [nutR BoxA] | 0.29 ± 0.015 | 1.6 ± 0.1 |  |  | 
4 | CGCUAUUACACAUUCCA (ssRNA) [nutR BoxA16-spacer (C38A)] |  | 5.1 ± 1.4 |  |  | 
5 | CGCUCGUACACAUUCCA (ssRNA) [nutR BoxA(U39G)-spacer] |  | 1.6 ± 0.8 |  |  | 
6 | UGCUCUUUA (ssRNA) [rrnG BoxA] | 0.05 ± 0.015 | 0.2 ± 0.01 |  |  | 
7 | CGCUCUUACACAUUCCA (ssRNA) [nutR BoxA-spacer] |  |  |  |  | binding result (NusB D118A): no binding; binding result (NusB D118R): no binding; binding result (NusB D118K): no binding
8 | CACAUUCCA (ssRNA) [nutR spacer] |  |  | no binding | no binding | 
9 | AAAAUUAA (ssRNA) [nutL spacer] |  |  | no binding | no binding | 
10 | AUAGCGGCCACAUUCCA (ssRNA) [nutR BoxA69-spacer (boxA transversion)] |  |  | no binding | no binding | 
